B1: unnamed (protein)
chain: MRPPQCLLHTPSLASPLLLLLLWLLGGGVGAEGREDAELLVTVRGGRLRGIRLKTPGGPVSAFLGIPFAEPPMGPRRFLPPEPKQPWSGVVDATTFQSVCYQAVDTLYPGFEGTEMWNPNRELSEDCLYLNVWTPYPRPTSPTPVLVWIYGGGFYSGASSLDVYDGRFLVQAERTVLVSMNYRVGAFGFLALPGSREAPGNVGLLDQRLALQWVQENVAAFGGDPTSVTLFGESAGAASVGMHLLSPPSRGLFHRAVLQSGAPNGPWATVGMGEARRRATQLAHLVGCPPGGTGGNDTELVACLRTRPAQVLVNHAAHVLPQESVFRFSFVPVVDGDFLSDTPEALINAGDFHGLQVLVGVVKDEGSYFLVYGAPGFSKDNESLISRAEFLAGVRVGVPQVSDLAAEAVVLHYTDWLHPEDPARLREALSDVVGDHNVVCPVAQLAGRLAAQGARVYAYVFEHRASTLSWPLWMGVPHGYEIEFIFGIPLDPSRNYTAEEKIFAQRLMRYWANFARTGDPNEPRDPKAPQWPPYTAGAQQYVSLDLRPLEVRRGLRAQACAFWNRFLPKLLSATDTLDEAERQWKAEFHRWSSYMVHWKNQFDHYSKQDRCSDL
B2: unnamed (protein)
chain: MRPPQCLLHTPSLASPLLLLLLWLLGGGVGAEGREDAELLVTVRGGRLRGIRLKTPGGPVSAFLGIPFAEPPMGPRRFLPPEPKQPWSGVVDATTFQSVCYQYVDTLYPGFEGTEMWNPNRELSEDCLYLNVWTPYPRPTSPTPVLVWIYGGGFYSGASSLDVYDGRFLVQAERTVLVSMNYRVGAFGFLALPGSREAPGNVGLLDQRLALQWVQENVAAFGGDPTSVTLFGESAGAASVGMHLLSPPSRGLFHRAVLQSGAPNGPWATVGMGEARRRATQLAHLVGCPPGGTGGNDTELVACLRTRPAQVLVNHAWHVLPQESVFRFSFVPVVDGDFLSDTPEALINAGDFHGLQVLVGVVKDEGSYFLVYGAPGFSKDNESLISRAEFLAGVRVGVPQVSDLAAEAVVLHYTDWLHPEDPARLREALSDVVGDHNVVCPVAQLAGRLAAQGARVYAYVFEHRASTLSWPLWMGVPHGYEIEFIFGIPLDPSRNYTAEEKIFAQRLMRYWANFARTGDPNEPRDPKAPQWPPYTAGAQQYVSLDLRPLEVRRGLRAQACAFWNRFLPKLLSATDTLDEAERQWKAEFHRWSSYMVHWKNQFDHYSKQDRCSDL
B3: unnamed (protein)
chain: MRPPQCLLHTPSLASPLLLLLLWLLGGGVGAEGREDAELLVTVRGGRLRGIRLKTPGGPVSAFLGIPFAEPPMGPRRFLPPEPKQPWSGVVDATTFQSVCYQAVDTLYPGFEGTEMWNPNRELSEDCLYLNVWTPYPRPTSPTPVLVWIYGGGFYSGASSLDVYDGRFLVQAERTVLVSMNYRVGAFGFLALPGSREAPGNVGLLDQRLALQWVQENVAAFGGDPTSVTLFGESAGAASVGMHLLSPPSRGLFHRAVLQSGAPNGPWATVGMGEARRRATQLAHLVGCPPGGTGGNDTELVACLRTRPAQVLVNHEAHVLPQESVFRFSFVPVVDGDFLSDTPEALINAGDFHGLQVLVGVVKDEGSYFLVYGAPGFSKDNESLISRAEFLAGVRVGVPQVSDLAAEAVVLHYTDWLHPEDPARLREALSDVVGDHNVVCPVAQLAGRLAAQGARVYAYVFEHRASTLSWPLWMGVPHGYEIEFIFGIPLDPSRNYTAEEKIFAQRLMRYWANFARTGDPNEPRDPKAPQWPPYTAGAQQYVSLDLRPLEVRRGLRAQACAFWNRFLPKLLSATDTLDEAERQWKAEFHRWSSYMVHWKNQFDHYSKQDRCSDL
B4: unnamed (protein)
chain: MRPPQCLLHTPSLASPLLLLLLWLLGGGVGAEGREDAELLVTVRGGRLRGIRLKTPGGPVSAFLGIPFAEPPMGPRRFLPPEPKQPWSGVVDATTFQSVCYQYVNTLYPGFEGTEMWNPNRELSEDCLYLNVWTPYPRPTSPTPVLVWIYGGGFYSGASSLDVYDGRFLVQAERTVLVSMNYRVGAFGFLALPGSREAPGNVGLLDQRLALQWVQENVAAFGGDPTSVTLFGESAGAASVGMHLLSPPSRGLFHRAVLQSGAPNGPWATVGMGEARRRATQLAHLVGCPPGGTGGNDTELVACLRTRPAQVLVNHEWHVLPQESVFRFSFVPVVDGDFLSDTPEALINAGDFHGLQVLVGVVKDEGSYFLVYGAPGFSKDNESLISRAEFLAGVRVGVPQVSDLAAEAVVLHYTDWLHPEDPARLREALSDVVGDHNVVCPVAQLAGRLAAQGARVYAYVFEHRASTLSWPLWMGVPHGYEIEFIFGIPLDPSRNYTAEEKIFAQRLMRYWANFARTGDPNEPRDPKAPQWPPYTAGAQQYVSLDLRPLEVRRGLRAQACAFWNRFLPKLLSATDTLDEAERQWKAEFHRWSSYMVHWKNQFDHYSKQDRCSDL
B5: unnamed (protein)
chain: MRPPQCLLHTPSLASPLLLLLLWLLGGGVGAEGREDAELLVTVRGGRLRGIRLKTPGGPVSAFLGIPFAEPPMGPRRFLPPEPKQPWSGVVDATTFQSVCYQYVDTLYPGFEGTEMWNPNRELSEDCLYLNVWTPYPRPTSPTPVLVWIYGGGFYSGASSLDVYDGRFLVQAERTVLVSMNYRVGAFGFLALPGSREAPGNVGLLDQRLALQWVQENVAAFGGDPTSVTLFGESAGAASVGMHLLSPPSRGLFHRAVLQSGAPNGPWATVGMGEARRRATQLAHLVGCPPGGTGGNDTELVACLRTRPAQVLVNHEWHVLPQESVFRFSFVPVVDGDFLSDTPEALINAGDFHGLQVLVGVVKDEGSAFLVYGAPGFSKDNESLISRAEFLAGVRVGVPQVSDLAAEAVVLHYTDWLHPEDPARLREALSDVVGDHNVVCPVAQLAGRLAAQGARVYAYVFEHRASTLSWPLWMGVPHGYEIEFIFGIPLDPSRNYTAEEKIFAQRLMRYWANFARTGDPNEPRDPKAPQWPPYTAGAQQYVSLDLRPLEVRRGLRAQACAFWNRFLPKLLSATDTLDEAERQWKAEFHRWSSYMVHWKNQFDHYSKQDRCSDL
B6: unnamed (protein)
chain: MRPPQCLLHTPSLASPLLLLLLWLLGGGVGAEGREDAELLVTVRGGRLRGIRLKTPGGPVSAFLGIPFAEPPMGPRRFLPPEPKQPWSGVVDATTFQSVCYQAVDTLYPGFEGTEMWNPNRELSEDCLYLNVWTPYPRPTSPTPVLVWIYGGGFYSGASSLDVYDGRFLVQAERTVLVSMNYRVGAFGFLALPGSREAPGNVGLLDQRLALQWVQENVAAFGGDPTSVTLFGESAGAASVGMHLLSPPSRGLFHRAVLQSGAPNGPWATVGMGEARRRATQLAHLVGCPPGGTGGNDTELVACLRTRPAQVLVNHEWHVLPQESVFRFSFVPVVDGDFLSDTPEALINAGDFHGLQVLVGVVKDEGSYFLVYGAPGFSKDNESLISRAEFLAGVRVGVPQVSDLAAEAVVLHYTDWLHPEDPARLREALSDVVGDHNVVCPVAQLAGRLAAQGARVYAYVFEHRASTLSWPLWMGVPHGYEIEFIFGIPLDPSRNYTAEEKIFAQRLMRYWANFARTGDPNEPRDPKAPQWPPYTAGAQQYVSLDLRPLEVRRGLRAQACAFWNRFLPKLLSATDTLDEAERQWKAEFHRWSSYMVHWKNQFDHYSKQDRCSDL
B7: unnamed (protein)
chain: MRPPQCLLHTPSLASPLLLLLLWLLGGGVGAEGREDAELLVTVRGGRLRGIRLKTPGGPVSAFLGIPFAEPPMGPRRFLPPEPKQPWSGVVDATTFQSVCYQAVDTLYPGFEGTEMWNPNRELSEDCLYLNVWTPYPRPTSPTPVLVWIYGGGFYSGASSLDVYDGRFLVQAERTVLVSMNYRVGAFGFLALPGSREAPGNVGLLDQRLALQWVQENVAAFGGDPTSVTLFGESAGAASVGMHLLSPPSRGLFHRAVLQSGAPNGPWATVGMGEARRRATQLAHLVGCPPGGTGGNDTELVACLRTRPAQVLVNHAWHVLPQESVFRFSFVPVVDGDFLSDTPEALINAGDFHGLQVLVGVVKDEGSYFLVYGAPGFSKDNESLISRAEFLAGVRVGVPQVSDLAAEAVVLHYTDWLHPEDPARLREALSDVVGDHNVVCPVAQLAGRLAAQGARVYAYVFEHRASTLSWPLWMGVPHGYEIEFIFGIPLDPSRNYTAEEKIFAQRLMRYWANFARTGDPNEPRDPKAPQWPPYTAGAQQYVSLDLRPLEVRRGLRAQACAFWNRFLPKLLSATDTLDEAERQWKAEFHRWSSYMVHWKNQFDHYSKQDRCSDL
B8: unnamed (protein)
chain: MRPPQCLLHTPSLASPLLLLLLWLLGGGVGAEGREDAELLVTVRGGRLRGIRLKTPGGPVSAFLGIPFAEPPMGPRRFLPPEPKQPWSGVVDATTFQSVCYQYVDTLYPGFEGTEMWNPNRELSEDCLYLNVWTPYPRPTSPTPVLVWIYGGGFYSGASSLDVYDGRFLVQAERTVLVSMNYRVGAFGFLALPGSREAPGNVGLLDQRLALQWVQENVAAFGGDPTSVTLFGESAGAASVGMHLLSPPSRGLFHRAVLQSGAPNGPWATVGMGEARRRATQLAHLVGCPPGGTGGNDTELVACLRTRPAQVLVNHEWHVLPQESVFRASFVPVVDGDFLSDTPEALINAGDFHGLQVLVGVVKDEGSYFLVYGAPGFSKDNESLISRAEFLAGVRVGVPQVSDLAAEAVVLHYTDWLHPEDPARLREALSDVVGDHNVVCPVAQLAGRLAAQGARVYAYVFEHRASTLSWPLWMGVPHGYEIEFIFGIPLDPSRNYTAEEKIFAQRLMRYWANFARTGDPNEPRDPKAPQWPPYTAGAQQYVSLDLRPLEVRRGLRAQACAFWNRFLPKLLSATDTLDEAERQWKAEFHRWSSYMVHWKNQFDHYSKQDRCSDL
B9: unnamed (protein)
chain: MRPPQCLLHTPSLASPLLLLLLWLLGGGVGAEGREDAELLVTVRGGRLRGIRLKTPGGPVSAFLGIPFAEPPMGPRRFLPPEPKQPWSGVVDATTFQSVCYQYVDTLYPGFEGTEMWNPNRELSEDCLYLNVWTPYPRPTSPTPVLVWIYGGGFYSGASSLDVYDGRFLVQAERTVLVSMNYRVGAFGFLALPGSREAPGNVGLLDQRLALQWVQENVAAFGGDPTSVTLFGESAGAASVGMHLLSPPSRGLFHRAVLQSGAPNGPWATVGMGEARRRATQLAHLVGCPPGGTGGNDTELVACLRTRPAQVLVNHEWHVLPQESVFRFSFVPVVDGDFLSDTPEALINAGDFHGLQVLVGVVKDEGSYFLVAGAPGFSKDNESLISRAEFLAGVRVGVPQVSDLAAEAVVLHYTDWLHPEDPARLREALSDVVGDHNVVCPVAQLAGRLAAQGARVYAYVFEHRASTLSWPLWMGVPHGYEIEFIFGIPLDPSRNYTAEEKIFAQRLMRYWANFARTGDPNEPRDPKAPQWPPYTAGAQQYVSLDLRPLEVRRGLRAQACAFWNRFLPKLLSATDTLDEAERQWKAEFHRWSSYMVHWKNQFDHYSKQDRCSDL

substrate: Acetylcholine; details: pH 8; 27 °C

B1 and B2 are within 1.5-fold of each other in Km: 300 µM for the first, 280 µM for the second.

First: B3
Second: B4
The Km of the first is 2-fold lower: 300 µM for the first, 600 µM for the second.

B5 and B6 are within 1.5-fold of each other in Km: 100 µM for the first, 130 µM for the second.

B7 and B8 are within 1.5-fold of each other in Km: 240 µM for the first, 310 µM for the second.

Protein B9 has a Km of 300 µM.

Going from B1 to B2, the kcat rises from 3330 s⁻¹ to 6330 s⁻¹ (1.9-fold).

Going from B3 to B4, the kcat falls from 7000 s⁻¹ to 4170 s⁻¹ (1.7-fold).

Compared with B5, B6 is 3.8-fold higher in kcat: 1670 s⁻¹ for the first, 6330 s⁻¹ for the second.

First: B7
Second: B8
The kcat of the first is 3.3-fold higher: 6670 s⁻¹ for the first, 2000 s⁻¹ for the second.

Work on B9 yielded a kcat of 4170 s⁻¹.

Going from B1 to B2, the kcat/Km rises from 1.11e+07 M⁻¹ s⁻¹ to 2.26e+07 M⁻¹ s⁻¹ (2-fold).

Compared with B3, B4 is 3.4-fold lower in kcat/Km: 2.33e+07 M⁻¹ s⁻¹ for the first, 6.94e+06 M⁻¹ s⁻¹ for the second.

Compared with B5, B6 is 2.9-fold higher in kcat/Km: 1.67e+07 M⁻¹ s⁻¹ for the first, 4.87e+07 M⁻¹ s⁻¹ for the second.

Going from B7 to B8, the kcat/Km falls from 2.78e+07 M⁻¹ s⁻¹ to 6.45e+06 M⁻¹ s⁻¹ (4.3-fold).

B9 gave a kcat/Km of 1.39e+07 M⁻¹ s⁻¹.
